{"source": "paper doi:10.1101/2023.08.30.555640", "about": "(bioRxiv, 2023)", "biological_target": "Wildtype human ubiquitin (human, UniProt P0CG47 1-76)", "assay": "NMR titration", "data": [{"binder": "PEVRFQQQLEQLNAMGFLNREANLQALIATGGDINAAIERLLGS (domain or fragment)", "note": "[human ubiquilin2 UBA domain (residues 578 to 621)]", "values": [{"measurement": "binding result", "result": "binds"}]}]}
